Measured values: publication doi:10.1101/2025.10.25.684501

Target: reconstituted silk fibroin (RSF) labelled with DyLight 650 (Bombyx mori) (UniProt P05790)
Assay: MST

Kd: 24 nM
Substance: wild-type (WT) α-synuclein (from UniProt P37840 1-140) (natural protein)
